Measured values: the nanobody polyreactivity screen of Harvey et al. (2022)

Assay: yeast display, Sf9 membrane polyspecificity reagent, FACS + sequencing; frameworks hold sequencing errors
How it was run: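 Genes from sorted yeast were amplified by colony PCR, read by MiSeq 2 × 250 sequencing and filtered on CDR length. These cells carried a synthetic nanobody library in Saccharomyces cerevisiae BJ5465 and were sorted by FACS into low and high (top ~1%) gates on anti-HA and streptavidin fluorescence. Polyreactivity is labelled according to the gate of origin.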

| Sequence | polyreactivity (PSR sort gate) |
| --- | --- |
| QVQLAESGGGLVQAGGSLRLSCAASGRIFSGYAMGWSRQAPGKERELVAAITSVGSTNYADSVKGRFTISRDNAKNTVYLQMNSLKPEDTAVYYCAAKFVRPYRMYYWGQGTQVTVSS | high polyreactivity |
| QVQLVESGGGLVQAGGSLRLSCAASGSIFESYAMGWYRQAPGKERELVAAITKRGGSTYYADSVKGRFTISRDNAKYTVYLQMNSLKPEDTAVYYCNARWPGIGPIYDYWGQGSQVTVSS | low polyreactivity |
| QVQLVESGGGLVQAVGSLRLSCAPSGSTFFKYARGWYRQAPGKERELVAVITRSGGTTYYADSVKGRFTISRDNAKNTVYLLMNSLKPEDTAVYYCAAGYYQYHRGYPTFTRYDYWGQGTQVTVSS | high polyreactivity |
| QVQLVESGGGLVQAGGSLRLSCAASGRTFVVNVMGWYRQAPGKERELVAAISSVVSTNYADSVKGRFTISRDNAKNTVYLQMNCLKPEDTAVYYCAADVRGAYSTYLYTTTIRYDYWGQGTQVTVSS | low polyreactivity |
| QVQLVESGGGLVQAGGSLRLSCAASGYTFYANAMGWYRQAPGKEREFVASITWSGGSTYYADSVKGRFTISRDNAKNTVYLQMNSLKTEDTAVYYCAAESWFKYDYWGQGTQVTVSS | low polyreactivity |
| QVQLVESGGGLVQAGGSLRLSCAASGIILYRNGMGWYRQAPGKERELVAASSWSTGSTYYADSVKGRFTISRDNAKNTVYLQMNSLKPEDTAVYYCATDYVGYSFGMYYWGQGTQVTVSS | low polyreactivity |
| QVQLVESGGGLVQAGGSLRLSCAASGRTFTIYAMGWYRQAPGKERDLVAAITRSGGGTYYADSVKGRFTISRDNAKNTVYLQMNRLKPEDTAVYYCARDKHWFYGVIGPEDYWGQGTQVTVSS | low polyreactivity |
| QDQLVETVGVLDKAGGSLRLSCAASGRTFAIYAMAWYRQAPGKEREFVAASSWSGGDSYYADSVKGRFTISRDNAKNSVYLQMNSLKPEHTAVYYCAARDNDYEGRYLQYDLDYWGQGTQVTVST | low polyreactivity |
| QVQLVESGGGVVQAGGILSLSCAASGFTFATYAMGWYRQAPGKERELVAGITRSGGSTYYADSVKGRFTNSRYNAKNTVYLQMNSLKPEDTAVYYCNKAYGGDKYSGTYDYWGQGTQVTVSS | high polyreactivity |
| QVQLVESGGGLVQAGGSLRLSCAASGNTLVKNAMGWYRQAPGKERELVAANSSSGGRTYYADSVKGRFTISRDNAKTTVYLQLNSLKPEDTAVYYCAARYPSGYYYWGQGTQVTVSS | high polyreactivity |
| QVQLVESGGGLVQAGGSLRLSCAASGFIFGYYAMGWYRQAPRKERELVAAISQSTGSTYYADSVKGRFSNSRDNAKNTVYLQMNSLKPEDTAVYYCNAEGPEVTTWGYVYWDWGYGYWGQGTQVTVSS | low polyreactivity |
| QVQLVESVGGLVQAGGSLRLSCAASVYIFGYNAMGWYRQAPGKERELVAAISRSAGRTYYAVSVKGRFTISRDNAKNTVYLQMNSLKPEDTAVYYCAAQSYWLCYEYWGHGTQVTVSS | high polyreactivity |
| QVQLVESGGGLVQAGGSLRLTCAASGSIFVQYAMGWYRQAPGKERELVATISSSGGSTYYADSVKGRCTISRDNAKNTVYLQMNSLKPEDTAVYYFAADWTLDRSYGYYADDYWGQGTQVTVSS | low polyreactivity |
| QVQLVESGGGLVQAGGSLRLSCAASGFIFRYNAMGWYRQRPGKERELVAVITSGGRTYYADSVKGRFTISRDNAKNTVYLQMNSLKPEDTAFYYCNADSRHRRNYDYWGQGTQVTVSS | high polyreactivity |
| QDQHVESGGGLVQAGGSLRLSCDASGRTFTRYAMGWYRQAPGKERELVAAISRGGSTYYADSVKRRFTISRDNAKNTVYLQMNSLKPEDTAVYYCAARYGTYTAGNYWGQGTQVTVSS | high polyreactivity |
| QVQLVESGGGLVQAGGSLRLSCAASGSIFPGYTMGWYRQAPGKERELVAAISWSDGSTYYADSVKGRFTISRDNAKNTVYLQMNSLKPDDTAVYYCNRDYRGPYYYWGQGTQVTVSS | high polyreactivity |

| Sequence | polyreactivity (PSR sort gate) |
| --- | --- |
| QVQLVESGGGLVQAGGSLLLSCAASGFTFLWYDMGWYRQSPGKERELVAAIDASDGSTYYADSVKGRFTISRDNAKNTVYLQMNSLKPEDTAVYYCAVAAGYFGKWTYYYWGQGTQVTVSS | high polyreactivity |
| QVQLVESGGGLVQAGGSLRLSCAASRSTSYDYAMGWYRQAPGKERELVAAISGSSSTTYYADSVKGRFTISRDNAKNTVSLQMNSLKPEDTAVYYCNAVTTSGSGYGYWGQGTQVTVSS | low polyreactivity |
| QVQLVESGGGLVQAGGSLRLRCAASGSIFKPYAMGWYRQAPGNERELVAAINRGGTSTYYADSVKGRFTISRDNAKNTVYFQMNSLKPEDTAVYYCAAPNRYSVPMYYWGQGTQVTVSS | low polyreactivity |
| QVQLVESGGGLVQAGGSLRLSCAASGGTLFTNAMGWYRQAPGKERELVAAISWRGGRTYYADSVKGRFTISRDNAKNTVYLQMNSLKPEDSAVYYCAADVSAVQGYYYWGQGTQVTVSS | low polyreactivity |
| QVQLVESGGGLVQAGGSLRLSCAASGNIFWRYGMGWYRQAPGKERELVAAITSGGTGTYYADSVKGRFTISRDNAKNTVYLQMNSLKPEDTAVYYCAARRWTNHYFYGWFYYWGQGTQVTVSS | high polyreactivity |
| QVQLVESGGGLVQAGGSLRLSCAASGSIFGVNAMGWYRQAPGKERELVAAISSGGSTNYADSVKGRFTISRDNAKNTVYLQMNSLKPEDTAVYYCAADTKTRSNYDYWGQGTQVTVSS | low polyreactivity |
| QVQLVESGGGLVQAGGSLRLSCAASGIIFVDNVMGWYIQAPGKERELVAAIDYSGGSTYYADSVKGRFTISRDNAKNSVYLQMNSLKPEDTAVYYCAATDPRRRVRYGYWGQGTQVTVSS | low polyreactivity |
| QVQLVESGGGLVQAGGSLRLSCAASGRTFTRNVMGWYRQAPGKERELVARISYSGGSTSYADSVKGRFTISRDNAKNTVYLQMNSLKPEDTAVYYCAKYSGKYVSGRYRYYSWGQGTQVTVSS | high polyreactivity |
| QVQLVESGGGLVQAGGSLRLSCAASGSTFNHNAMGWYRQAPGKERELVAAITSGTSTYYADSVKGRFTISRDNAKNTVYLQMNSLKPEDTAVYYCAADSPWGGGYFVLYNYWGQGTQVTVSS | low polyreactivity |
| QVQLVESGGGLVQAGGSLRLSCAASGSTFGRYAMGWYRQAPGKEREFVAGITGRGGSTYYADSVKGRFTISRDNAKNTVYLQMNSLKPEDTAVYYCAAGYRVGYLRAGDYWGQGTQVTVSS | high polyreactivity |
| QVQLVESGGGLVQAGGSLRLICADSGLTFSCYTMGGYRQAPGKERELVADITVSGGTTYYADSVKGRFSISRDNAKNTVYLQMNSLKPEDTSVYYCNAQDTFTYYSSSPTYDYWGQGTQVTVSS | low polyreactivity |
| QVQLVESGGGLVQAGGSLRLSCAASGIIIDYYTMGWYRQAPGKERELVAAINKSGGSTYADSVKGRFTISRDNAKNTVYLQMNSLKPEDNAVYYCAAEVDYSYWPEYARKYYYWGQGTQVTVSS | low polyreactivity |
| QVQLVESGGGLDQAGGSLRLSCAASGFTFYVYTMGWYRQAPGKERELVARITSRAGRTYYADSVKGRFTISRDNAKNTVYLQMNSLKPEDTAVYYCNTRDFSGYVHALSLYDYWGQGTQVTVSS | high polyreactivity |
| QVQLVESGGGLVQAGGSLRLSCAASGSIFYKNAMAWYRQAPGKERELVAAITWSGGSTYYADSVKGRFTISRDNAKNTVYLHMNSLKPEDTAVYYCAAGLYRYRKYGYWGQGTQVTVSS | low polyreactivity |
| QVQLVESGGGLVQAGGSLRLSCAASGRTLEQYAMGWYRQAPGKERELVAAINKSGARTYYADSVKGRFTISRDNAKNSVYLQMNSQKPEDTAVYYCNTVGPSYLFDYWGQGTQVTVSS | high polyreactivity |
